# From PMC3438448
# How the values were obtained:
# [1] = target: microtubules (taxol-stabilized, α/β-tubulin) (UniProt P02554)
# axonemal microtubules = assay: single-molecule microtubule release assay (TIRF); as a6, perfused with 5 mM ATP in the presence of 800 nM Lis1; durations of attachment fitted by a one-phase exponential decay
# microtubules (taxol-stabilized, α/β-tubulin), sequence (chain, as listed by the source, chain 1 of 2): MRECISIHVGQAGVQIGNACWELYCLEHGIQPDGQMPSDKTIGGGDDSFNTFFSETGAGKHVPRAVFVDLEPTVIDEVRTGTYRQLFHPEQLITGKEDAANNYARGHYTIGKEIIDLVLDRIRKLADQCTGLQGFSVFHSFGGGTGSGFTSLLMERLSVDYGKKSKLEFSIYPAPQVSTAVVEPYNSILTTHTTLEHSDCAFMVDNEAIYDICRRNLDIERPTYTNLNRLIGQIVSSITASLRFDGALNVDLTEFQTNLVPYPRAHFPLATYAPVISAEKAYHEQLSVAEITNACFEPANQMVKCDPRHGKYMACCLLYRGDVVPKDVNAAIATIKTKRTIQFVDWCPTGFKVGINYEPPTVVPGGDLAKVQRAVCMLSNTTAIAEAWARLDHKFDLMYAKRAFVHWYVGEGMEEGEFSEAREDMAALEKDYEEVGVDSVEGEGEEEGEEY
# microtubules (taxol-stabilized, α/β-tubulin), sequence (P02554 whole entry, chain 2 of 2, the tested form may be a part): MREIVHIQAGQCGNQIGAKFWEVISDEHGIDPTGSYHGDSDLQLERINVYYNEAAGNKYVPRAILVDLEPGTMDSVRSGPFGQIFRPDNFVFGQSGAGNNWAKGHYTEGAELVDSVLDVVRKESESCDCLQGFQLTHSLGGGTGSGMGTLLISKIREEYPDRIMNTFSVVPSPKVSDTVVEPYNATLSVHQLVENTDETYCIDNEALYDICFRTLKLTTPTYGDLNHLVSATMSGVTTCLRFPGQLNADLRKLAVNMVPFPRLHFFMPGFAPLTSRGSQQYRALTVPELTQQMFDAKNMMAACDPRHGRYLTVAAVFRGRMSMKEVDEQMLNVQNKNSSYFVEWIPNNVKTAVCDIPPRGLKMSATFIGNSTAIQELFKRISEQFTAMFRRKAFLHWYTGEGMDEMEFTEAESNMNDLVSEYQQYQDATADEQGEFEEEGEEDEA
"Km(MT) of the microtubule-stimulated ATPase activity, with 140 nM Lis1 [1] [µM]","Km(MT) of the microtubule-stimulated ATPase activity, without Lis1 [1] [µM]","off-rate (decay constant) of microtubule attachments after ATP addition, with 800 nM Lis1 and 5 mM ATP (axonemal microtubules) [s⁻¹]","off-rate (decay constant) of rebinding events, with Lis1 and ATP (axonemal microtubules) [s⁻¹]",Substance
0.2,0.09,,,"GST-dynein_(331 kDa), P36022 1-4092"
,,0.162,0.23,monomeric dynein_(331 kDa) (domain or fragment)
